Data taken from US20130303449A1 (University of California, published 2013).
Positions of bridges follow the written chain, without caps; N, C: chain ends. No end group written: not given here.

What was measured:
recombinant human BMP-2 [1] = biological target: T1, recombinant human BMP-2 (human, UniProt P12643 283-396); test: SPR (Biacore X), rhBMP-2 on CM-5 chip, peptide at 1×10^-5 to 1×10^-4 M in solution
T1 construct: Attached to a CM-5 sensor chip for the SPR assay; also called rhBMP-2; RhBMP-2
T1 sequence (P12643 283-396 limits assumed): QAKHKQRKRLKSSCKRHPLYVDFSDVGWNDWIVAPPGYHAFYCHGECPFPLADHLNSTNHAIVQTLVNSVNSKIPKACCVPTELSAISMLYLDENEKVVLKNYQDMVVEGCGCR
Protocol: Buffers and chips for the procedure were obtained from Biacore. […] This material was then attached to a CM-5 sensor chip using reagents and procedures supplied by the manufacturer. Running buffer was 10 mM HEPES, pH 7.4, 150 mM NaCl, 3 mM EDTA, 0.005% Surfactant P20. The peptide was dissolved in running buffer at concentrations ranging from 1×10⁻⁵ to 1×10⁻⁴ M. Flow rates from 5 to 50 μl/min and injection volumes of 20 to 100 μl were employed. The regeneration solution was […] glycine-HCl, pH 2.0.

recombinant human BMP-2 [2] = biological target: T1, recombinant human BMP-2; test: cell-based or functional assay

B1: cyclized BMP Binding Peptide (BBP), bovine (peptide)
peptide: CRSTVRMSAEQVQNVWVRC
modifications: disulfide 1-19 (inferred)
notes: Synthetic 19 amino acid cyclic peptide, 2.1 kD; Reduction with β-mercaptoethanol decyclizes it, which implies a disulfide; also called cyclized BBP
Kd (recombinant human BMP-2 [1]): 30 µM | retention of labeled rhBMP-2 on collagen sponges implanted in rodent muscle pouches (1, 3 and 7 days) (recombinant human BMP-2 [2]): ~2 fold
